Source: a protein production outcome set (Wang et al. 2014)

test: label from the status in PepcDB records
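Also: failed if final PepcDB status was selected cloned or expressed and not failed if soluble or beyond.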

**Q.** With “MSESVNKKITDGNYDKTLAVKCVNGTFVGKKTEGVIAYKGIPFVGQQPVGKLRWKAPVDVTPSNDVYEAYNYEKAPVQAPGDPAIENGMGEDCLYLNIWRADETVTEKKPVIVWIYGGGFEVGGTSDPQYDCHSLVKENPDVILVSLAYRVSFFGFMHLSHLSDGKDYQDAPNLGLLDQLMGLKWVHENIANFGGDPDNVTIWGESAGGASVTLLPLIKGSHQYFKRVIAQSGAPAQTRSEEQAIAITDHVMKELGCKTVADLLKVSAQEFADTWARLYGFYQVLGIRTFPERDGRCLPLNPWEAYANGAAKDITFLQGCNKDEMNTFLGSIGVDRWNAWANQRKAEKLIQLTDEEKALVESYCNDIQGESYEPTVRLFSQIMFQVPQIRLSEEQTKGGGKSYTYLFTPESSVPLIKCGHITELSALFNHPEITAFTGRAYDETFCKTMRKMWIQFAKTGNPSLTAEMSPDGKAKEWPLYDTEKKVMVLDEQNIHPAKESELKIVDWERTYFLTNYYMP” as the sequence, how does the protein production read?
**A.** failed

**Q.** For “MSFALGQRWISDTESDLGLGTVVALDARTVTLMFAASEENRVYARSDAPVTRVIFNVGDVVDSQQGWSLQVEQVVEDQGVYTYLGTRVDTEESGVALREIFLSNQIRFNKPQDKLFAGQIDRMDNFVLRY”, which protein production is on record?
**A.** not failed

**Q.** With “MSFDRPEIYSAPVLQGESPNDDDNTEIIKSFKNFILEFRLDSQFIYRDQLRNNILVKNYSLTVNMEHLIGYNEDIYKKLSDEPSDIIPLFETAITQVAKRISILSRAQSANNNDKDPENTSMDTDSLLLNSLPTFQLILNSNANQIPLRDLDSEHVSKIVRLSGIIISTSVLSSRATYLSIMCRNCRHTTSITINNFNSITGNTVSLPRSCLSTIESESSMANESNIGDESTKKNCGPDPYIIIHESSKFIDQQFLKLQEIPELVPVGEMPRNLTMTCDRYLTNKVIPGTRVTIVGIYSIYNSKNGAGSGRSGGGNGGSGVAIRTPYIKILGIQSDVETSSIWNSVTMFTEEEEEEFLQLSRNPKLYEILTNSIAPSIFGNEDIKKAIVCLLMGGSKKILPDGMRLRGDINVLLLGDPGTAKSQLLKFVEKVSPIAVYTSGKGSSAAGLTASVQRDPMTREFYLEGGAMVLADGGVVCIDEFDKMRDEDRVAIHEAMEQQTISIAKAGITTVLNSRTSVLAAANPIYGRYDDLKSPGDNIDFQTTILSRFDMIFIVKDDHNEERDISIANHVINIHTGNANAMQNQQEENGSEISIEKMKRYITYCRLKCAPRLSPQAAEKLSSNFVTIRKQLLINELESTERSSIPITIRQLEAIIRITESLAKLELSPIAQERHVDEAIRLFQASTMDAASQDPIGGLNQASGTSLSEIRRFEQELKRRLPIGWSTSYQTLRREFVDTHRFSQLALDKALYALEKHETIQLRHQGQNIYRSGV” as the sequence, how does the protein production read?
**A.** failed

**Q.** With “MSFEAFTELYIRDVKTRLKENTWLTKEHIIRTKILPYFGKLRISEISTKEIITWQNELLAYRDEKKKPYSQTYLKTLHNQLSAIFNHAVRYYELRSNPAAKVGNMGSE” as the sequence, how does the protein production read?
**A.** failed

**Q.** With “MSFFNKIILIGRLVRDPEERYTLSGTPVTTFTIAVDRVPRKNAPDDAQTTDFFRIVTFGRLAEFARTYLTKGRLVLVEGEMRMRRWETPTGEKRVSPEVVANVVRFMDRKPAETVSETEEELEIPEEDFSSDTFSEDEPPF” as the sequence, how does the protein production read?
**A.** not failed

**Q.** For “MSFGNEKGQDIIHRKEVEFFVKNLKDYFSNINKYVVILWDEEGIILEFKENGGNLLGYTPEQIEGKKWPDILTDGKDKEQTTEINKKLVNSKIVRYYINSIKDVNGTSKIFLWCNLKLENVQSDKKIFLSVGFNLDSIDNLKEKTDESKFELDTLNEKKENLEFKVTKDDLILKQKDDTIRDYKSKLEFLAFYDELTGLPNKNSLIRWLNLKVSQMDCIDTYLIFLEVRDLEKLNVTYGYDLVDELIIHISKRIKDIAGEGNKAFKIGFDRFAIICKSENISDFIERMLSQLLLPYNVNGNLIRVNFNIGAAQIENSNEAAANLMRRCDLALIKAKEEGLNEYVIFKPSIEIQTLKEGILERELRNGIELNEFIVFYQPFVKLENDKICGFEALLRWYYLKSVFVSPLEFIPVAEKYGLIIDLGNMVLKQSLKAGKILKKYYDDEFTISINISPKQFIDKRFVKNTIEILENEKLQDIRLRFEITEKVAIENIDYTIRIMNEFKKYNVTFALDDFGVEYSSLNYLRKLPIEAVKIDKSFVQDINDHDTYFIVETIVKLCKKLNLKTVIEGVETQRQYQIIKELGCDYAQGYFIAKPLPINELINLVGKYKILE”, which protein production is on record?
**A.** failed

**Q.** Which protein production does the source give for “MSFKNDHKYQWKDMQGKDFLLPFIYLIGNFCLSIVILTIMIGINETQGKNNANFNANFSGTPGILMEMIAFIIIFALWILFHRHSFRQSWKQGLQNIKQHWKLIVITFIVIIVFKEIYPYLVNAFAPEHWKFEETQNDKMVEEMFATPVSTILAFFSIVIIAPMTEEFLFRHLIIGELGKKLNFYVMSVISIIVFASLHVTEAKSPLEIVMYLAIAVGIVYVYMKSQRSLAVAIALHALNNLLAYIFMIIM” here?
**A.** failed

**Q.** With “MSFSTEIEVRFKHCDPAGIVFFPRYFEMINDVVEDWFANDLGCPFHELVKENGAPTAQIQARFTAPSLHGDVLSFRLTPTRIGNSSLDYDLTAHCGDELRLRATATLVHVARLGRSQPWPQAIRERVAAQIDSALEHHHHHH” as the sequence, how does the protein production read?
**A.** failed

**Q.** For “MSFVECPYHSPAERLVAEADEGGPSAITGMGLCFRCLLFSFSGRSGVEGGRVDLNVFGSLGLQPWIGSSRCWGGPCSSALRCGWFSSWPPPSKSAIPIGGGSRGAGRVSRWPPPHWLEAWRVSPRPLSPLSPATFGRGFIAVAVIPGLWARGRGCSSDRL”, which protein production is on record?
**A.** failed

**Q.** With “MSFVTTQPEALAAAAANLQGIGTTMNAQNAAAAAPTTGVVPAAADEVSALTAAQFAAHAQMYQTVSAQAAAIHEMFVNTLVASSGSYAATEAANAAAAG” as the sequence, how does the protein production read?
**A.** failed

**Q.** Which protein production does the source give for “MSFYVVVGAGPVGRETARLLGEEGHDVVLTSRSVGSNALPNVRTVQADATDASELSRICRGADAIFMCAMAAYHRWPTDFFPIIDGTVRAAEAVGAKLIVLGNLYGYGENADSPLRSDLPLDPTSRKGTARTIMWQRAVRAGIPAIEIRSSDYLGHGAISYFSLIALPAIIEGKPTAFIGDLDATHAWAFTKDVARTLVAAALYKGEWGRAFHVPSQYASPRELIQKAAAMLGQEVSGTLSYSVPEIEALGMHEAIEMSYLFEKPLLVDASDTEALLGVKASSLEEMIADTLRDHL” here?
**A.** failed

**Q.** For “MSGDILNDIVAACLELERKASSVFKMFAAHAGSDEARRFWETVADETRHHSAVYERLQERGGRENLPIIIYKPAETLEELEMIGKSIDEQVERYTEAPSSEAACLLGFRLQLYLLHPAFASLCRLTRDASGEDLPDIGYGRYLRRFIDGIGSCGLATAETELLGEALFRLWNEARQLAAQSHFDALTGVMTRAGFFKTVGSLAYAAQRSGSNVGIMLIDLDYFKLVGDNYGHQTGDRILQLVAETITSHLRRSDVVGRYDGDEFVVYLSPVEPASLRTVAENLRRSIEEESARMVPVTASIGVAQGILGTDVDGGIEELVRLADECLMQAKYTGKNKVVVK”, which protein production is on record?
**A.** not failed

**Q.** With “MSGDYRITLEELRYISVFHSITGVTAYRCIVDEENNRLIFLVSEGEAGRAIGRGGRLIKLLREALGKNIEVVEYSSDLERIVKNLFPGVKIESINVRERNGVKQVVIKVSEDDKGAAIGKGGKNVKRARLVLSKLFGVEKVVIR” as the sequence, how does the protein production read?
**A.** not failed

**Q.** For “MSGEGDTTLKAICYKPGSLQLLDQRKLPLETIYLEIRDASDGWSAIQEMVVRGAPAIAIAAALSLAVEVFNFHGFDGSASDAVAFLENKLDYLVSSRPTAVNLADAALKLKHVIAKALATATEAKSIFKAYIEASEDMLEDDVVSNKAIGNFGLSLLRQQAKNPDKLSVLTHCNTGSLATAGYGTALGVIRALHTQGILERAYCTETRPFNQGSRLTAFELVHEKIPATLIADSAAAALMKDGRVDGVIVGADRVASNGDTANKIGTYSLALCAKHHGIPFYVAAPLTSVDLSLSSGKEIVIEERSPKELMHTHGGLGERIAAPGISVWNPAFDMTPAELIAGIITEKGVITKNGNDTFDISSFAKKITGNSSR”, which protein production is on record?
**A.** failed

**Q.** For “MSGEKIDITPKKDGGVLKLIKKEGQGVVKPTTGTTVKVHYVGTLENGTKFDSSRDRGDQFSFNLGRGNVIKGWDLGVATMTKGEVAEFTIRSDYGYGDAGSPPKIPGGATLIFEVELFEWSAEDISPDRDGTILRTIIVEGSKNSFPNDTSKVLAHCVGTYQGTEFYNREVNFHIGEGSEEGLPEGVERALRRFQLGEKSKIEIRGHKYTYGNSPPAGSNIPVNATLEFTIFLKEFEKVPATWEMTAEEKLDAAKQAKDRGTMYLQKGNLKLAYNKYKRAEEVLEYEKSTDPEKMAERETILNGAYLNLSLVCSKQNEQLECIKWCDKVLETKPGNVKALYRKATALLTMNEVRDAMKLFEKIVEVEPENKAAAQQIIVCRNTIREQNERDKKRFKNLFAKISTEEDKPTNTVEDEDEIVASTSGSSTSNA”, which protein production is on record?
**A.** not failed

**Q.** Which protein production does the source give for “MSGFSMKRVSQMTALAMALGLACASSWAAELAKPLTLDQLQQQNGKAIDTRPSAFYNGWPQTLNGPSGHELAALNLSASWLDKMSTEQLNAWIKQHNLKTDAPVALYGNDKDVDAVKTRLQKAGLTHISILSDALSEPSRLQKLPHFEQLVYPQWLHDLQQGKEVTAKPAGDWKVIEAAWGAPKLYLISHIPGADYIDTNEVESEPLWNKVSDEQLKAMLAKHGIRHDTTVILYGRDVYAAARVAQIMLYAGVKDVRLLDGGWQTWSDAGLPVERGTPPKVKAEPDFGVKIPAQPQLMLDMEQARGLLHRQDASLVSIRSWPEFIGTTSGYSYIKPKGEIAGARWGHAGSDSTHMEDFHNPDGTMRSADDITAMWKAWNIKPEQQVSFYCGTGWRASETFMYARAMGWKNVSVYDGGWYEWSSDPKNPVATGERGPDSSK” here?
**A.** failed

**Q.** Which protein production does the source give for “MSGGGVIRGPAGNNDCRIYVGNLPPDIRTKDIEDVFYKYGAIRDIDLKNRRGGPPFAFVEFEDPRDAEDAVYGRDGYDYDGYRLRVEFPRSGRGTG” here?
**A.** not failed

**Q.** For “MSGGLVALLDDVAALARIAAASVDDIAAGAAKAGAKAAGVVIDDAAVTPQYVSGADPSRELPMIKRIFWGSLRNKLLIILPALLLVSAFIPGVIPFILMLGGTYLCYEGAEKVWHKLRGHSATEKAPAVQRGPEAEAKVTKGAITTDFILSCEIMVIAMNEVADESLWVRALILVVVAFVITVVVYGAVGLIVKMDDIGLHLTTKASSGSQRFGRLLVKGMPAVLAAITLIGTIAMLWVGGHIMLQGAYDLGWHAPYDLVHVLETPFAGIPVAGGFLAWLVNTLCSAILGAVWGLVIMVILHPLLKVLPFGKKHEGHEEGDVRAAIAGYRPAKSKPTR”, which protein production is on record?
**A.** failed

**Q.** For “MSGKRALITGIRGQDGAYLAKLLLEKGYEVYGADRRSGEFASWRLKELGIENDVKIIHMDLLEFSNIIRTIEKVQPDEVYNLAAQSFVGVSFEQPILTAEVDAIGVLRILEALRTVKPDTKFYQASTSEMFGKVQEIPQTEKTPFYPRSPYAVAKLFGHWITVNYREAYNMFACSGILFNHESPLRGIEFVTRKITYSLARIKYGLQDKLVLGNLNAKRDWGYAPEYVEAMWLMMQQPEPDDYVIATGETHTVREFVEKAAKIAGFDIEWVGEGINEKGIDRNTGKVIVEVSEEFFRPAEVDILVGNPEKAMKKLGWKPRTTFDELVEIMMEADLKRVRDREVSV”, which protein production is on record?
**A.** not failed

**Q.** With “MSGLRVYSTSVTGSREIKSQQSEVTRILDGKRIQYQLVDISQDNALRDEMRTLAGNPKATPPQIVNGNHYCGDYELFVEAVEQDTLQEFLKLA” as the sequence, how does the protein production read?
**A.** not failed

**Q.** Which protein production does the source give for “MSGQADTATTAEARTPAHAAHHLVEGVARVLTKPRFRGWIHVYSAGTAVLAGASLVAVSWAVGSAKAGLTTLAYTAATITMFTVSATYHRVNWKSATARNWMKRADHSMIFVFIAGSYTPFALLALPAHDGRVVLSIVWGGAIAGILLKMCWPAAPRSVGVPLYLLLGWVAVWYTATILHNAGVTALVLLFVGGALYSIGGILYAVRWPDPWPTTFGYHEFFHACTAVAAICHYIAMWFVVF” here?
**A.** failed

**Q.** With “MSGQPTAVDCLESSGSTVEDVQETPASREKSYGLPVRKGENSLESPAEQAAKDVEIEELTHSEAIAATGSTRKQCPYGGKAPDEPGKLADESEDRKGENTKAIASSPVLVAVDSDSSVELIESPVKFSSANESEKDPPKPDAVNEAAAKE” as the sequence, how does the protein production read?
**A.** failed
